Our source for the % activity values is patent publication US20150064134A1.

Common to all, as to assay: cell-based or functional assay
Assay [1] addresses CDK3/cyclinE(h) (human) (UniProt Q00526).
Assay [2] deals with CaMKIIβ(h) (human) (UniProt Q13554).
Assay [3] concerns the target T1, LKB1(h) (human) (UniProt Q15831).
T1 sequence (looked up): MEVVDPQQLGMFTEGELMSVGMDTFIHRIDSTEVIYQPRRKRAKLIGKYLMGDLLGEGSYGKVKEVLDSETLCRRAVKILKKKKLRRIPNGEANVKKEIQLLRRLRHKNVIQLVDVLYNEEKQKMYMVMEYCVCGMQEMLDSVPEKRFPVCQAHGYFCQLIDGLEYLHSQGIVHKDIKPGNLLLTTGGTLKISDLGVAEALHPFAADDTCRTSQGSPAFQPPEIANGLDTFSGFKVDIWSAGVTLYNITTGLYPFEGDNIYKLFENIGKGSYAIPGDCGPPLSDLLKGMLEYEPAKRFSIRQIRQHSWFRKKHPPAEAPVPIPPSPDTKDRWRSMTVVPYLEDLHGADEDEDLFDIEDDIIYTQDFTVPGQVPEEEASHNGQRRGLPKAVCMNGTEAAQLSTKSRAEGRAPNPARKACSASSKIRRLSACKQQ

Assay [4] deals with LOK(h) (human) (UniProt O94804).
Assay [5] concerns the target MKK6(h) (human) (UniProt P52564).
Assay [6] deals with T2, NLK(h) (human) (UniProt Q9UBE8).
T2 sequence (looked up): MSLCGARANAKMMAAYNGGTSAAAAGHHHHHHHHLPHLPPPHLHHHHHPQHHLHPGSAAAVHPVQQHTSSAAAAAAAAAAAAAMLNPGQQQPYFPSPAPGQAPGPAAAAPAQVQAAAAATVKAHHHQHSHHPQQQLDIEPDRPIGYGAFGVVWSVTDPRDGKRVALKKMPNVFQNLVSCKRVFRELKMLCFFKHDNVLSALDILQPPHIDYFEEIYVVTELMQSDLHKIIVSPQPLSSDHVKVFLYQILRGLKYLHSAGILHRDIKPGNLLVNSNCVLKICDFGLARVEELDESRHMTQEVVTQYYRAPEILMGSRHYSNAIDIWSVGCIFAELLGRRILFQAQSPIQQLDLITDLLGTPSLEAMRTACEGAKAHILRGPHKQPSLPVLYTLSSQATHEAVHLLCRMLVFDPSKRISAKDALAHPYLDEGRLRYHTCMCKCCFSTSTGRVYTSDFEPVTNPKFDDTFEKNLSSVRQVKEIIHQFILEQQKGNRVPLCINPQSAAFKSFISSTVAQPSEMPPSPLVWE

For assay [7], the target named is PKCα(h) (human) (UniProt P17252).
Assay [8] has as its target Pim-3(h) (human) (UniProt Q86V86).
Assay [9] has as its target T3, SAPK4(h) (human) (UniProt O15264).
T3 sequence (looked up): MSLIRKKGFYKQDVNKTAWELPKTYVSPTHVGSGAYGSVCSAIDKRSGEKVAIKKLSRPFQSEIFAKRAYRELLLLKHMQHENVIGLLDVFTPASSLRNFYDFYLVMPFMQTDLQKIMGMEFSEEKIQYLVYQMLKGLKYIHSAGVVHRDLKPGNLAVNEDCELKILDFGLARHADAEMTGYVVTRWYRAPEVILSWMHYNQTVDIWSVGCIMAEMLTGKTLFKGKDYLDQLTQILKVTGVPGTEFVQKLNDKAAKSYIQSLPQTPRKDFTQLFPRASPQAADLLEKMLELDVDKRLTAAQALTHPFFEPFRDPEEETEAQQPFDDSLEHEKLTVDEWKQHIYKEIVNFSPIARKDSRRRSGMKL

Assay [10] concerns the target T4, TAO3(h) (human) (UniProt Q9H2K8).
T4 sequence (looked up): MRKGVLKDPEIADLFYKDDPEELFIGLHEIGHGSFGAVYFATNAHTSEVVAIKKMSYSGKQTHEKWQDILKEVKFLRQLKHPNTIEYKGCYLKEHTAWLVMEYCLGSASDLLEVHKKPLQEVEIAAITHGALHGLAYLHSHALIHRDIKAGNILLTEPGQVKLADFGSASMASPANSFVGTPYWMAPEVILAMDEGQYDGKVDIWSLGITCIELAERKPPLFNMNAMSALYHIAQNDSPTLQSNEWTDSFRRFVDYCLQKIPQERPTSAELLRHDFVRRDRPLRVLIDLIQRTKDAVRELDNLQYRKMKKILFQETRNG

Assay [11] concerns the target T5, eEF-2K(h) (human) (UniProt O00418).
T5 sequence (looked up): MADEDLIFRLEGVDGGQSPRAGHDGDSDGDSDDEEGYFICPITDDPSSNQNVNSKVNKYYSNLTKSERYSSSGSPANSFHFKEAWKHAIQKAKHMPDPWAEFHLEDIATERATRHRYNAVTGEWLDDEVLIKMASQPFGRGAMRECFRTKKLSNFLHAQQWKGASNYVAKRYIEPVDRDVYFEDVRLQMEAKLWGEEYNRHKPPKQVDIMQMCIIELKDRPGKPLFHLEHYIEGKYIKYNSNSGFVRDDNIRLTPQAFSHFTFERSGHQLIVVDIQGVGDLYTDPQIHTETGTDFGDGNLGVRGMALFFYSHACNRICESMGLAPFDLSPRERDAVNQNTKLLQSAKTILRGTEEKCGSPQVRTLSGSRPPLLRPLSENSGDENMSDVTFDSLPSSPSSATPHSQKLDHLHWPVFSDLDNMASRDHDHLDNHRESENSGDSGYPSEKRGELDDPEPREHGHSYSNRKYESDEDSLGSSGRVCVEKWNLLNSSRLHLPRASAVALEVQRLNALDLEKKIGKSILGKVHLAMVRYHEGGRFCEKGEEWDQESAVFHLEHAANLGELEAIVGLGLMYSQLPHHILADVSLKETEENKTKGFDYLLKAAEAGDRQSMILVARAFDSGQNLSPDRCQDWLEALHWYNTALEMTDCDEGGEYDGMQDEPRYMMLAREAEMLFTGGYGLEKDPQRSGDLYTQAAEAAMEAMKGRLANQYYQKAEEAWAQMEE

Chain of CaMKIIβ(h) (human) (Q13554 whole entry): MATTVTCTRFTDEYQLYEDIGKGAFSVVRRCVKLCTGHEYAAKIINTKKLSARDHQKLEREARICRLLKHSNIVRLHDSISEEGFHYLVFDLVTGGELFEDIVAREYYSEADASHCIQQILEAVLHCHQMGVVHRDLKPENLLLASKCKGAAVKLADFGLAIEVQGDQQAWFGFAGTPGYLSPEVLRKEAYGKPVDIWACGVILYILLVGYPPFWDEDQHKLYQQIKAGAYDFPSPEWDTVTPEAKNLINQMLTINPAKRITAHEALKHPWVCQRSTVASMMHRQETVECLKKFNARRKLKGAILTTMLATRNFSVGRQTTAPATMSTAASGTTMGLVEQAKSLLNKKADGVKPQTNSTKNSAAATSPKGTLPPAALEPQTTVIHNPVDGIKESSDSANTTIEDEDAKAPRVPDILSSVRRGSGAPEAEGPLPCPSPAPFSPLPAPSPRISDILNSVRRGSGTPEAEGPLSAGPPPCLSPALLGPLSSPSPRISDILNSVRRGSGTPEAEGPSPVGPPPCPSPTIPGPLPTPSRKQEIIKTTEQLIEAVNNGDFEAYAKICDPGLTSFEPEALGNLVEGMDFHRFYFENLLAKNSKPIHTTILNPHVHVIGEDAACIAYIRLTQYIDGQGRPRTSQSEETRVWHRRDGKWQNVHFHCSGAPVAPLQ

With MMI-0400 (peptide), the % activity at 100 µM stood at 92% in [1]; 11% in assay [2]; 89% in assay [3]; 18% in [4]; 44% in [5]; 90% in assay [6]. The % activity at 100 µM worked out at 86% in assay [7]; 80% in [8]; 91% in assay [9]; 67% in assay [10]; 43% in [11].

Regarding MMI-0500 (peptide), the % activity at 100 µM in assay [1] was 8%; in assay [2], 3%; in assay [3], 51%; in [4] it was 7%; in [5], 18%; in [6], 19%. In addition, the % activity at 100 µM in assay [7] was determined as 3%; in assay [8], 37%; in assay [9], 48%; in assay [10], 12%; in [11], 43%.

Turning to MMI-0300 (peptide), the % activity at 100 µM is 94% in assay [1]; 2% in [2]; 101% in assay [3]; 37% in assay [4]; 48% in [5]; 87% in assay [6]. Besides, the % activity at 100 µM in [7] was 89%; in assay [8], 80%; in assay [9], 96%; in assay [10], 77%; in assay [11], 91%.
